{"source": "the supplement of paper PMC9732359", "note": "± gives the uncertainty stated by the source."}
{"assay": "protein stability index of a GFP-peptide fusion (yeast GPS) (PSI 1-4); higher = more stable; sorted into four equal gates, so the index is relative within each strain", "settings": "pdr5∆", "summary_of_the_method": "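The protein stability index combines read frequencies across sorting gates, each weighted by its gate number and then summed. To obtain those frequencies, a pooled yeast library of GFP fusions to tiled 17-residue yeast protein peptides, on a plasmid also expressing Cherry, was grown to mid-log phase in leucine-free medium. The cells were sorted into four equal gates by GFP/Cherry ratio before plasmid amplification by PCR and Illumina sequencing.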"}
{"sequence": "LESIQKTKEAVAALKAV [RPL4A]", "protein stability index": "3.37 ± 0.2"}
{"sequence": "LESTIAETQGSKVVIDS [IRR1]", "protein stability index": "3.03 ± 0.14"}
{"sequence": "LESTKAETDYVDPKRLA [DSN1]", "protein stability index": "3.19 ± 0.067"}
{"sequence": "LESYLIVHHPYQSLKQI [SSN8]", "protein stability index": "2.46 ± 0.059"}
{"sequence": "LETDGVNLSEVMTVPGI [RPO21]", "protein stability index": "3.36 ± 0.21"}
{"sequence": "LEYMNTARINNRRLFKK [RRI2]", "protein stability index": "2.21 ± 0.072"}
{"sequence": "LEYYAMLSKTKVYYFQG [RPL30]", "protein stability index": "3.08 ± 0.1"}
{"sequence": "LFAGYTDNVIRVWQVMT [ASC1]", "protein stability index": "2.07 ± 0.057"}
{"sequence": "LFGQSQQPQTNTAPGLG [YGR119C/NUP57]", "protein stability index": "2.88 ± 0.27"}
{"sequence": "LFNKPPSTNAQNVNVPS [YOR098C/NUP1]", "protein stability index": "3.05 ± 0.051"}
{"sequence": "LFPVAAQDSLTVTIASS [RPB8]", "protein stability index": "1.48 ± 0.049"}
{"sequence": "LFQELSKVVDDMPSLRL [GRR1]", "protein stability index": "1.61 ± 0.11"}
{"sequence": "LFQRQKLHEFYLLISKE [IRR1]", "protein stability index": "2.97 ± 0.076"}
{"sequence": "LFRIFSMSEEFKYVSVR [BRR2]", "protein stability index": "3.18 ± 0.15"}
{"sequence": "LFSEKTIRYLMQKQHEM [SNF6]", "protein stability index": "2.55 ± 0.045"}
{"sequence": "LGAIEQILIFAADTSIV [YJL039C/NUP192]", "protein stability index": "2.02 ± 0.049"}
{"sequence": "LGAVAGLIPYPHHNQSP [RET1]", "protein stability index": "2.97 ± 0.071"}
{"sequence": "LGHTKAALGEVASMELK [SIR2]", "protein stability index": "2.96 ± 0.077"}
{"sequence": "LGIEAARYSIIREINYT [RPO31]", "protein stability index": "1.66 ± 0.12"}
{"sequence": "LGKQSSSLLSRLISSKM [FAS2]", "protein stability index": "2.94 ± 0.065"}
{"sequence": "LGKRINSAVNNAISNTQ [SRP54]", "protein stability index": "3.19 ± 0.12"}
{"sequence": "LGKRSILAAAHRDAYSG [PRE2]", "protein stability index": "3.26 ± 0.2"}
{"sequence": "LGKYEFSKILPAALDGL [ESC2]", "protein stability index": "2.67 ± 0.072"}
{"sequence": "LGLCCLLDVKLAIDNMY [YCG1]", "protein stability index": "1.51 ± 0.04"}
{"sequence": "LGLLLPIAASTDLPIET [RPN1]", "protein stability index": "2 ± 0.065"}
{"sequence": "LGRLVKAGKITTIEEIF [RPS2]", "protein stability index": "2.29 ± 0.12"}
{"sequence": "LGRTGSRGGVTQVRVEF [RPS28A]", "protein stability index": "3.19 ± 0.053"}
{"sequence": "LGTLVNQKTSAVAALTE [RPL8A]", "protein stability index": "2.45 ± 0.082"}
{"sequence": "LGTVQREIESLIAEETN [SMC3]", "protein stability index": "2.83 ± 0.082"}
{"sequence": "LGVIHKGNLLEGKKVMA [RPN2]", "protein stability index": "1.33 ± 0.048"}
{"sequence": "LHKIFYKVLKNNGLPEC [YCG1]", "protein stability index": "1.95 ± 0.043"}
{"sequence": "LHKLELKAKNQEEEGEL [DSN1]", "protein stability index": "3.29 ± 0.17"}
{"sequence": "LHKNFESENFKIIALQP [RGR1]", "protein stability index": "2.62 ± 0.078"}
{"sequence": "LHKRQQFSESTHNDIDS [YJL039C/NUP192]", "protein stability index": "3.03 ± 0.091"}
{"sequence": "LHYTPIEDLWQFLYEKH [RPC82]", "protein stability index": "2.28 ± 0.13"}
{"sequence": "LIELLEKLDVSRSSVCV [YCG1]", "protein stability index": "2.32 ± 0.058"}
{"sequence": "LIELSGGQRSLIALSLI [SMC2]", "protein stability index": "2.29 ± 0.09"}
{"sequence": "LIETVRQMKDVNAPLPT [RPN2]", "protein stability index": "3.12 ± 0.051"}
{"sequence": "LIGCIDEAKDFIVSGTA [PUP3]", "protein stability index": "2.67 ± 0.061"}
{"sequence": "LIITRKAFKNNSSKYYI [SMC4]", "protein stability index": "2.98 ± 0.092"}
{"sequence": "LILRDFLNNGEVDSASD [RPN3]", "protein stability index": "2.89 ± 0.17"}
{"sequence": "LILSGDTTANNGKVQYF [YJL039C/NUP192]", "protein stability index": "2.52 ± 0.086"}
{"sequence": "LINLKISPLMKSQYNMV [SRB8]", "protein stability index": "1.59 ± 0.08"}
{"sequence": "LIQLQNIFKAEMDSVSK [CSN9]", "protein stability index": "2.54 ± 0.14"}
{"sequence": "LIRPSSKVIIKFLQVMQ [RPS22A]", "protein stability index": "1.82 ± 0.03"}
{"sequence": "LISIISSVIQNYDIITA [YML103C/NUP188]", "protein stability index": "1.42 ± 0.1"}
{"sequence": "LISRLCPNSTGAELRSV [RPT1]", "protein stability index": "1.77 ± 0.047"}
{"sequence": "LIVIDVVEGVTFVVEQL [SNU114]", "protein stability index": "1.92 ± 0.061"}
{"sequence": "LIYGISDEERDDEDDEH [AAR2]", "protein stability index": "3.05 ± 0.097"}
{"sequence": "LKFFLVDENETVLESLG [LIN1]", "protein stability index": "2.94 ± 0.092"}
{"sequence": "LKFLYLLDAYSHIESDS [MED1]", "protein stability index": "2.44 ± 0.075"}
{"sequence": "LKFMAASEVATHSKLFA [PRP8]", "protein stability index": "3.07 ± 0.082"}
{"sequence": "LKGLLQELKADSPFSLI [SRP72]", "protein stability index": "1.26 ± 0.059"}
{"sequence": "LKKIASIPNLFPTDLEI [SWI1]", "protein stability index": "2.69 ± 0.044"}
{"sequence": "LKKLEKFMELERKTLER [SWI3]", "protein stability index": "2.84 ± 0.069"}
{"sequence": "LKKLKAMNDACYEKVLE [BRR2]", "protein stability index": "3.26 ± 0.061"}
{"sequence": "LKLGLVEYLDVNEENDS [RET1]", "protein stability index": "3.08 ± 0.086"}
{"sequence": "LKLSQAFGSSATDISGE [YJR042W/NUP85]", "protein stability index": "2.05 ± 0.067"}
{"sequence": "LKNLRKKLNFKLCQAFM [YJR042W/NUP85]", "protein stability index": "2.18 ± 0.093"}
{"sequence": "LKNVNKRAFENFKKFNE [SMC3]", "protein stability index": "1.95 ± 0.15"}
{"sequence": "LKQEGAANKTVVVVGTV [RPL18A]", "protein stability index": "3.31 ± 0.11"}
{"sequence": "LKREERQGLIHQGSGGS [SMC3]", "protein stability index": "3.52 ± 0.1"}
{"sequence": "LKRYCCRRMILTHVDLI [RPB10]", "protein stability index": "1.54 ± 0.11"}
{"sequence": "LKSSLADVLSILAMTYS [RPN1]", "protein stability index": "2.02 ± 0.12"}
{"sequence": "LKSTKHSISEAENMLEE [SMC4]", "protein stability index": "2.87 ± 0.12"}
{"sequence": "LKTFHFAGVASMNVTLG [RPO31]", "protein stability index": "2.25 ± 0.048"}
{"sequence": "LKVLSGDEGYNEDMVRR [SNF12]", "protein stability index": "3.22 ± 0.13"}
{"sequence": "LKVTKKHGAKKVAKRTK [RPL27A]", "protein stability index": "3.54 ± 0.17"}
{"sequence": "LKYSKRRSLKKQGRIKN [CSN12]", "protein stability index": "3.27 ± 0.069"}
{"sequence": "LLAQLNGTVNNNSALSN [RPT3]", "protein stability index": "2.25 ± 0.14"}
{"sequence": "LLATKQHDSSANEDEEE [CSN12]", "protein stability index": "3.05 ± 0.089"}
{"sequence": "LLCDKAQKNTQSYGGRP [PRE5]", "protein stability index": "3.27 ± 0.095"}
{"sequence": "LLDKYGKTGLSNMILGS [YML103C/NUP188]", "protein stability index": "2.75 ± 0.11"}
{"sequence": "LLDRILPKLKATGHRVL [SNF2]", "protein stability index": "2.54 ± 0.08"}
{"sequence": "LLERTREIHNEAESQLR [FAS2]", "protein stability index": "2 ± 0.087"}
{"sequence": "LLIDQFSPVISQSLTSI [SWI1]", "protein stability index": "1.99 ± 0.067"}
{"sequence": "LLIIRSLKNTDALLNST [YJL039C/NUP192]", "protein stability index": "3 ± 0.096"}
{"sequence": "LLKDDTYQLCVRLRSNV [RPN3]", "protein stability index": "1.85 ± 0.29"}
{"sequence": "LLKKELLTIEPKLKEAT [SMC2]", "protein stability index": "3.14 ± 0.064"}
{"sequence": "LLKLTKVFIRESLSLKN [YML103C/NUP188]", "protein stability index": "1.89 ± 0.12"}
{"sequence": "LLLSRVRADDLSTRFNI [RRP43]", "protein stability index": "3.07 ± 0.063"}
{"sequence": "LLMRLEGNYRNLNNLKQ [RPB8]", "protein stability index": "3.13 ± 0.13"}
{"sequence": "LLNEWSHNVDELLEHIE [RPN5]", "protein stability index": "1.9 ± 0.09"}
{"sequence": "LLPTNNGQPLNQNFSLT [GRR1]", "protein stability index": "2.95 ± 0.045"}
{"sequence": "LLRALKTNEESAKMILL [PRP8]", "protein stability index": "2.98 ± 0.1"}
{"sequence": "LLRLASKSTSMKLSMPP [POP1]", "protein stability index": "2.76 ± 0.065"}
{"sequence": "LLRQKIEQCKHPLHELI [ISW2]", "protein stability index": "1.49 ± 0.081"}
{"sequence": "LLRSVLVLLELVSSGDR [YML103C/NUP188]", "protein stability index": "2.03 ± 0.12"}
{"sequence": "LLSDPTITIKSYHLWPS [PRP8]", "protein stability index": "2.62 ± 0.073"}
{"sequence": "LLTLTNAANVPVENIWA [RPP1A]", "protein stability index": "2.56 ± 0.13"}
{"sequence": "LLTNDESAFENLMGNRN [SNF12]", "protein stability index": "2.7 ± 0.12"}
{"sequence": "LLTNFHGMDFTTDKLRS [RPS1A]", "protein stability index": "3.02 ± 0.084"}
{"sequence": "LLWLVLIHPENFTCNRK [SWI1]", "protein stability index": "1.92 ± 0.063"}
{"sequence": "LMTFNAETKSYDSRGVG [YLR335W/NUP2]", "protein stability index": "2.65 ± 0.059"}
{"sequence": "LMVFNDDTKNQDSMSKG [YGR119C/NUP57]", "protein stability index": "3.46 ± 0.16"}
{"sequence": "LNAELESKLIPQENDLE [SMC3]", "protein stability index": "3.16 ± 0.076"}
{"sequence": "LNATKISPSAPSKDSFT [YAR002W/NUP60]", "protein stability index": "3 ± 0.068"}
{"sequence": "LNDEYNYPQLTEDILKE [YCS4]", "protein stability index": "3.12 ± 0.099"}
{"sequence": "LNDLNHLLVQLQKNDVY [REC8]", "protein stability index": "2.48 ± 0.047"}
{"sequence": "LNDRFQTLSSHLEALQP [PGD1]", "protein stability index": "2.69 ± 0.042"}
{"sequence": "LNDRQEEISRLQRDLIQ [YIL149C/MLP2]", "protein stability index": "3.25 ± 0.25"}
{"sequence": "LNEAPFPEENIIDAKTR [MCD1]", "protein stability index": "3.17 ± 0.052"}
